Measured values reported in patent US20070134249A1 (GENITOPE, published 2007).

What was measured:
Test in all cases: ELISA
[1] = target: T1, 1131; design: key to grade: 0 = <0.5 OD, 1 = 0.5-1.0 OD, 4 = 1-4 OD
T1 construct: H4-31 L3-25; also called PIN1131
Description: (§1) Before specificity screening, all of the clonal immunogen-positive hybridoma supernatants were re-screened on the immunogen, a non-family member Id protein, and KLH, if animals were immunized with Id protein that has been conjugated KLH. As described above, this screen identifies HC-specific clones but not mAbs against the light chain constant region. Clones identified positive to the immunogen and KLH were […]. Those found positive to the immunogen but not to the non-family member Id protein or KLH were tittered on the immunogen. In addition to normalizing for different binding affinities and concentrations, each hybridoma supernatant was titered on the fully human form of the Id protein used as the immunogen(s) for the V regions. The titer or dilution resulting in an ELISA absorbance of 2.5 to 3 OD after 30 min. incubation time was then used. Hybridoma specificity was determined by screening against available Id proteins expressing the same HV and KV or LV as well as different HV, KV and LV. The final ELISA results are expressed as follows: 0 (<0.5 OD), 1 (0.5-1.0 OD), or 4 (1-4 OD). Positive hybridoma supernatants are categorized according to specificity: anti-Id, anti-constant region (HC, KC or LC), or V region (HV, KV, LV family or family member).
(§2) In general, the fully human Id protein or proteins containing the immunogen V regions were coated onto 96-well ELISA plates at 2.5-5 ug/mL in carbonate buffer pH 9.6 and incubated at 4° C. for up to 14 days. On the day of the ELISA, plates were brought to RT and blocked with Tris-Tween-20, pH 7.6 for 15-60 min. at RT. Following a NaCl and Triton X-100 wash, diluted hybridoma cell culture supernatants were incubated overnight at 4° C. Hybridoma supernatant dilutions ranged from 1:2 to 1:25 and were prepared in PBS with 5% BSA. Plates were washed and incubated with HRP-conjugated goat anti-mouse IgG-specific detecting antibody. A chromogenic substrate (TMB) was used to measure the amount of mouse antibody bound to each well. The reaction was stopped at or before 30 minutes with IN H2SO4 and plates were read immediately. Absorbency readings at 450 nm ranging between 0-4 OD and using Molecular Devices plate reader and SOFTMAX PRO software.

[2] = target: T2, 747; design: key to grade: 0 = <0.5 OD, 1 = 0.5-1.0 OD, 4 = 1-4 OD
T2 construct: H3-23 L2-14; also called PIN747
Description: as §1, §2

[3] = target: T3, 625; design: key to grade: 0 = <0.5 OD, 1 = 0.5-1.0 OD, 4 = 1-4 OD
T3 construct: H4-61 L2-8; also called PIN625
Description: as §1, §2

[4] = target: T4, 710; design: key to grade: 0 = <0.5 OD, 1 = 0.5-1.0 OD, 4 = 1-4 OD
T4 construct: H1-8 L2-8; also called PIN710
Description: as §1, §2

[5] = target: T5, 733; design: key to grade: 0 = <0.5 OD, 1 = 0.5-1.0 OD, 4 = 1-4 OD
T5 construct: H3-48 L2-14; also called PIN733
Description: as §1, §2

[6] = target: T6, 645; design: key to grade: 0 = <0.5 OD, 1 = 0.5-1.0 OD, 4 = 1-4 OD
T6 construct: H3-74 L2-14; also called PIN645
Description: as §1, §2

[7] = target: T7, 1056; design: key to grade: 0 = <0.5 OD, 1 = 0.5-1.0 OD, 4 = 1-4 OD
T7 construct: H3-48 L2-14; also called PIN1056
Description: as §1, §2

[8] = target: T8, PIN574 fully human Id protein (HV4-39 / LV1-40) (human); design: key to grade: 0 = <0.5 OD, 1 = 0.5-1.0 OD, 4 = 1-4 OD
T8 construct: Recombinant patient-derived idiotype immunoglobulin used as antigen, fully human form; also called Immunogen (for 20H5); not shown: human immunoglobulin heavy chain constant region, isotype G3 (HCG3); human immunoglobulin lambda light chain constant region (LC)
T8 sequence (VH, as listed by the source, chain 1 of 2): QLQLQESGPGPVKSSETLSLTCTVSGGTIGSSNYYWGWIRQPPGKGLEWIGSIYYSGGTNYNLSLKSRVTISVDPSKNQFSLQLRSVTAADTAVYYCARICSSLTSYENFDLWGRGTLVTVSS
T8 sequence (VL, as listed by the source, chain 2 of 2): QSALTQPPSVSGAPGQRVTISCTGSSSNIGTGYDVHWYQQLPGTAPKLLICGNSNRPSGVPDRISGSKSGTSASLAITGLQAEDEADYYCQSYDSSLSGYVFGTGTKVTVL
Description: as §1, §2

[9] = target: T9, 626; design: key: 0 = <0.5 OD, 1 = 0.5-1.0 OD, 4 = 1-4 OD
T9 construct: H5-51 K4-1; also called PIN626
Description: as §1, §2

[10] = target: T10, 199; design: key: 0 = <0.5 OD, 1 = 0.5-1.0 OD, 4 = 1-4 OD
T10 construct: H3-7 K4-1; also called PIN199
Description: as §1, §2

[11] = target: T11, 631; design: key: 0 = <0.5 OD, 1 = 0.5-1.0 OD, 4 = 1-4 OD
T11 construct: H4-34 K4-1; also called PIN631
Description: as §1, §2

[12] = target: T12, 628; design: key: 0 = <0.5 OD, 1 = 0.5-1.0 OD, 4 = 1-4 OD
T12 construct: fully human Id protein; also called PIN628
T12 sequence (VH, as listed by the source, chain 1 of 2): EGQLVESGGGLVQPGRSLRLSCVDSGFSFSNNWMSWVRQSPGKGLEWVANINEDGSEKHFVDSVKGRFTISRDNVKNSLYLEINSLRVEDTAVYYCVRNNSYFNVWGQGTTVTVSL
T12 sequence (VL, as listed by the source, chain 2 of 2): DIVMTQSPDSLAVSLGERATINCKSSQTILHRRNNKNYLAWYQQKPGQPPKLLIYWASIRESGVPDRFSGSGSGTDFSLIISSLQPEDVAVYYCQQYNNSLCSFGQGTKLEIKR
Description: as §1, §2

[13] = target: T13, 898; design: key: 0 = <0.5 OD, 1 = 0.5-1.0 OD, 4 = 1-4 OD
T13 construct: H3-15 K4-1; also called PIN898
Description: as §1, §2

[14] = target: T14, 912; design: key: 0 = <0.5 OD, 1 = 0.5-1.0 OD, 4 = 1-4 OD
T14 construct: H3-23 K4-1; also called PIN912
Description: as §1, §2

[15] = target: T15, 950; design: key: 0 = <0.5 OD, 1 = 0.5-1.0 OD, 4 = 1-4 OD
T15 construct: H4-59 K4-1; also called PIN950
Description: as §1, §2

[16] = target: T16, 987; design: key: 0 = <0.5 OD, 1 = 0.5-1.0 OD, 4 = 1-4 OD
T16 construct: H3-23 K4-1; also called PIN987
Description: as §1, §2

[17] = target: T17, 1088; design: key: 0 = <0.5 OD, 1 = 0.5-1.0 OD, 4 = 1-4 OD
T17 construct: H2-5 K4-1; also called PIN1088
Description: as §1, §2

[18] = target: T18, 1145; design: key: 0 = <0.5 OD, 1 = 0.5-1.0 OD, 4 = 1-4 OD
T18 construct: H3-11 K4-1; also called PIN1145
Description: as §1, §2

[19] = target: T19, 913; design: key: 0 = <0.5 OD, 1 = 0.5-1.0 OD, 4 = 1-4 OD
T19 construct: fully human Id protein; also called PIN913
T19 sequence (heavy, as listed by the source): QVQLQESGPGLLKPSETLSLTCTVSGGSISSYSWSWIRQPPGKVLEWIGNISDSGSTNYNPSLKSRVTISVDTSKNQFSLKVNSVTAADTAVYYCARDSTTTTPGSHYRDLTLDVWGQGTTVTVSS
Description: as §1, §2

grade [1] | grade [2] | grade [3] | grade [4] | grade [5] | grade [6] | grade [7] | grade [8] | grade [9] | grade [10] | grade [11] | grade [12] | grade [13] | grade [14] | grade [15] | grade [16] | grade [17] | grade [18] | grade [19] | Binder
4 | 1 | 4 | 4 | 4 | 1 | 4 | 4 |  |  |  |  |  |  |  |  |  |  |  | mAb clone 4H11 (antibody, V domains shown, Mouse hybridoma mAb) VH: EVKLVESGGGLVKPGGSLKLSCAASGFAFSNYDMSWVRQTPEKRLEWVATIRSDDSYTYYPDSVKGRFTISRDNARNTLYLQMSSLRSEDTAFYYCARREGNYAMDYWGQGTSVTVSS VL: DIQMTQSPASLSVSVGETVTITCRASENIYSYLAWYQQKKGKSPQLLVYAATNLGDGVPTRFSGSGSGTQYSLKINSLQSEDFGSYYCQHFWGNPLTFGAGTKLELKR
 |  |  |  |  |  |  |  | 4 | 4 | 4 | 4 | 4 | 4 | 4 | 4 | 4 | 4 | 4 | mAb clone 12C3 (antibody, V domains shown, Mouse hybridoma mAb, fusions 20/21 (PIN628 V regions)) VH: EVKLVESGGGLVQPGGSLSLSCAASGFTYTDYYMNWVRQPPGKALEWLALIRNKANGYTTEYSASLKGRFTISRDNSQSILYLQMNALRAEDSATYYCVRENINYYFDYWGQGTTLTVSS VL: DIVLTQSPASLAVSLGQRATISCRASESVEYFGASLMQWYQQKSGQPPKLLIRAATNVESGVPARFSGSGSGTDFSLNIHPVEEDDIAMYFCQQSRKVPWTFGGGTKLEIKR
